Results reported in publication PMC4176333.
Where two headings read alike, the source gives them in different places.

Columns and labels:
[1] = target: T1, Hera_core (UniProt Q72GF3 1-365); test: fluorescence intensity titration
T1 sequence: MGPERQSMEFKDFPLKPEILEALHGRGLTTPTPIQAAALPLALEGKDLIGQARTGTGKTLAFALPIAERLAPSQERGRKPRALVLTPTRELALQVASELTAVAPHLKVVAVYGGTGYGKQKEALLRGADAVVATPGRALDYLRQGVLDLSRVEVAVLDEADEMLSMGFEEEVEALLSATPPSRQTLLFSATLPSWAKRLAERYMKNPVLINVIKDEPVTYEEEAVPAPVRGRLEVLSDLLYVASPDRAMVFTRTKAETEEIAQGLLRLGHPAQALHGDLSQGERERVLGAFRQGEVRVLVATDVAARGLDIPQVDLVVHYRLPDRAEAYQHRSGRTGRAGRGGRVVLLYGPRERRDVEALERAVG

[2] = target: T2, Hera RecA_N (UniProt Q72GF3 1-207); test: fluorescence intensity titration
T2 sequence: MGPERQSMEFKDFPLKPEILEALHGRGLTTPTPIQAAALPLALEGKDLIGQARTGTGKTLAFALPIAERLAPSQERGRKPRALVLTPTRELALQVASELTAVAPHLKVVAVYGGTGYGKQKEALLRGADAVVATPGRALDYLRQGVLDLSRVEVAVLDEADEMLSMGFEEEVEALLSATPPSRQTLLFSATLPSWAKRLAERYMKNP

[3] = target: T3, Hera RecA_C (UniProt Q72GF3 208-369); test: fluorescence intensity titration
T3 sequence: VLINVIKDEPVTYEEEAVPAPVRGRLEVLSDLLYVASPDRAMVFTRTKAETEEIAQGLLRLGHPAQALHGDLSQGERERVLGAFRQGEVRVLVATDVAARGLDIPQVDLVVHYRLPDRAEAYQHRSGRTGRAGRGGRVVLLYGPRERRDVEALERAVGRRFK

[4] = target: T4, YxiN_core (UniProt P42305 1-368); test: fluorescence intensity titration
T4 sequence: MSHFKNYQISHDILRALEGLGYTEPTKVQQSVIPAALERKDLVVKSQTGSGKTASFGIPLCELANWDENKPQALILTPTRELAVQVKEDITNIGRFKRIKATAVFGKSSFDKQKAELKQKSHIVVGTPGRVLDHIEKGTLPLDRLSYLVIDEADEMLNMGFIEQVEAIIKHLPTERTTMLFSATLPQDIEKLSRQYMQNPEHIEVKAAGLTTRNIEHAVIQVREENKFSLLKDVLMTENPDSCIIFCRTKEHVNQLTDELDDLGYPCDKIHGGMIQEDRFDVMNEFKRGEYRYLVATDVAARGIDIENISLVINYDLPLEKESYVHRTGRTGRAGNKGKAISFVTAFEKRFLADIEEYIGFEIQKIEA

[5] = target: T5, YxiN RecA_N (UniProt P42305 1-206); test: fluorescence anisotropy
T5 sequence: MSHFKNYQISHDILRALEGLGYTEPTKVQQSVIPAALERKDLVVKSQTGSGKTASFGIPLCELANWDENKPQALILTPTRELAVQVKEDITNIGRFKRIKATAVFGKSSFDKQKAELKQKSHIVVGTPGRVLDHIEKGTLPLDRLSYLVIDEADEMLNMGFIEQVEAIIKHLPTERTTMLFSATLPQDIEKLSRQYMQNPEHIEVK

[6] = target: T6, YxiN RecA_C (UniProt P42305 211-370); test: fluorescence anisotropy
T6 sequence: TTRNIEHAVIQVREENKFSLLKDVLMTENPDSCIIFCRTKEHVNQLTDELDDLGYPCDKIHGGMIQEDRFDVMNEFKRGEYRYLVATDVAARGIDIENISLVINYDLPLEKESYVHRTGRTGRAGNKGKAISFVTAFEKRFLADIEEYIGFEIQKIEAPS

[7] = target: T1, Hera_core; test: fluorescence intensity titration; remark: listed apart in the source

B1: 14mer dsRNA (dsRNA)
RNA 1: GGGCGGGCCCGCCC
RNA 2: GGGCGGGCCCGCCC
[1]
  Kd: 7 ± 3 nM
[2]
  Kd: 889 ± 236 nM
[3]
  Kd: 327 ± 161 nM
[4]
  Kd: 2 nM
[5]
  binding result: no binding
[6]
  binding result: no binding
[7]
  Kd: 15.1 nM
